The values below come from article PMC7946940.

The target in assay [1] is Rab5a(1–212)-Q79L-C19S-C63S (human) (UniProt P20339).
The target in assay [2] is Rab1a(1–204)-Q70L-C26S-C126S (human) (UniProt P62820).
Chain of Rab1a(1–204)-Q70L-C26S-C126S (human) (P62820 1-204 C26S/Q70L/C126S): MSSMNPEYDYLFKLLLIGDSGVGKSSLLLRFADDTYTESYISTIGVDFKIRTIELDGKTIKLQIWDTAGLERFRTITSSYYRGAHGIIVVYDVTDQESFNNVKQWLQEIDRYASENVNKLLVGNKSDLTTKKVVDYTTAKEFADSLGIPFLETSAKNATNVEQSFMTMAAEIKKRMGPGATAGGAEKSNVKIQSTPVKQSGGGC

Chain of human VPS34 complex I (VPS34/VPS15/Beclin 1/ATG14L) (Q8NEB9 whole entry): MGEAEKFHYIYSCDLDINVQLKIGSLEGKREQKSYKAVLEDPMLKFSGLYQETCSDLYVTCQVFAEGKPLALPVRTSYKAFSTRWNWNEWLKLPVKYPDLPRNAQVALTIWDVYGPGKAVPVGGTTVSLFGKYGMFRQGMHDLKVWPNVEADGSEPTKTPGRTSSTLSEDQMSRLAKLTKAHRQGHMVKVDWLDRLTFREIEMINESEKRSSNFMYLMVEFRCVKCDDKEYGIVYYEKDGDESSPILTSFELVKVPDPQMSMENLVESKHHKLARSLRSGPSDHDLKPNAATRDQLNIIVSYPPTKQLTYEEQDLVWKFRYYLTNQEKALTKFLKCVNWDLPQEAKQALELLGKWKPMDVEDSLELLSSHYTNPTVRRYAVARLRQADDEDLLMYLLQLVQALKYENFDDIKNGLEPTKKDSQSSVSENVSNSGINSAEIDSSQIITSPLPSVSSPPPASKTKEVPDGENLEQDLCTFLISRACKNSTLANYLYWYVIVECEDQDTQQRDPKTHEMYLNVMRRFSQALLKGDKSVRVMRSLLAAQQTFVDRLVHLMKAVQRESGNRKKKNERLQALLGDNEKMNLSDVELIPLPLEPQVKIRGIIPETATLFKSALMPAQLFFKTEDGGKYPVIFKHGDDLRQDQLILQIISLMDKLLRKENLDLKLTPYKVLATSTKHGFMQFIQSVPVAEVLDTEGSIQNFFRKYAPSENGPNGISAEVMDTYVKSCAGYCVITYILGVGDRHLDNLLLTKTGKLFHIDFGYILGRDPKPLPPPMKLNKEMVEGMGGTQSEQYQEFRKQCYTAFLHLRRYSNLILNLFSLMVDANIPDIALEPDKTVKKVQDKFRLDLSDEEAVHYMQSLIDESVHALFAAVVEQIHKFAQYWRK
Chain of human VPS34 complex I (VPS34/VPS15/Beclin 1/ATG14L) (Q99570 whole entry): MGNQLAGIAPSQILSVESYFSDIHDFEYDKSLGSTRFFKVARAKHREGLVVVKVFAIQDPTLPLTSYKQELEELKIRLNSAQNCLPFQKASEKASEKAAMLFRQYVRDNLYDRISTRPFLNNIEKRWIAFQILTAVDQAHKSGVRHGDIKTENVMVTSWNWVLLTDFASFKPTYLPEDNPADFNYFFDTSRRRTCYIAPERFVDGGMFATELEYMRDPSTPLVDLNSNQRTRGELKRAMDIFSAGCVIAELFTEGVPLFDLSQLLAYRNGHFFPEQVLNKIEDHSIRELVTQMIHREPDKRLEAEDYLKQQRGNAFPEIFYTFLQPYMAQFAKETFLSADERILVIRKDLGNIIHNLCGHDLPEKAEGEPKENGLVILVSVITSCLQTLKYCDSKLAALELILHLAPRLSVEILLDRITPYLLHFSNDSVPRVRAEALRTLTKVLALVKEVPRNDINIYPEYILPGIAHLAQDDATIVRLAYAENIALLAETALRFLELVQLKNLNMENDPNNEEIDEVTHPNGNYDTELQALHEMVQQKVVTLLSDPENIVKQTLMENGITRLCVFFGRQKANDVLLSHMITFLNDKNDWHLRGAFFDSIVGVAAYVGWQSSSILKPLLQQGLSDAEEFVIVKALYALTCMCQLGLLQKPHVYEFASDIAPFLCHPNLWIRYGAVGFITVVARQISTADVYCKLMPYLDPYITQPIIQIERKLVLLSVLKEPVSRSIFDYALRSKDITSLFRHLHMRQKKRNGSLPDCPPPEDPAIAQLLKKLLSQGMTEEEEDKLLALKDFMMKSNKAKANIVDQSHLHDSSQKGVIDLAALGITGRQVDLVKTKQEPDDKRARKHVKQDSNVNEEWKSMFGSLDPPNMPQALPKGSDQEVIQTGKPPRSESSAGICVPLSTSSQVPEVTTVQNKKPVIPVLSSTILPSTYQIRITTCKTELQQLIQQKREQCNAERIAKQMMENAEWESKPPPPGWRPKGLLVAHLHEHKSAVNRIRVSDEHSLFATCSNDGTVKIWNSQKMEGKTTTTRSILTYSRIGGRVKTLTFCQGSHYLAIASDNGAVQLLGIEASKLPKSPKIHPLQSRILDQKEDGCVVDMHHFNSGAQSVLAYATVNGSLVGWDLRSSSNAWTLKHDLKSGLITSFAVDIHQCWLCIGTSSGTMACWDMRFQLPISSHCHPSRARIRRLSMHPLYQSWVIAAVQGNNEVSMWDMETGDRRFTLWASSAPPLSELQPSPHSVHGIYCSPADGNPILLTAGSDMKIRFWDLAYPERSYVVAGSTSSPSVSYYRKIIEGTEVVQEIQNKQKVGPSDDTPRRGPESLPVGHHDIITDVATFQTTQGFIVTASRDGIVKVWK
Chain of human VPS34 complex I (VPS34/VPS15/Beclin 1/ATG14L) (Q14457 whole entry): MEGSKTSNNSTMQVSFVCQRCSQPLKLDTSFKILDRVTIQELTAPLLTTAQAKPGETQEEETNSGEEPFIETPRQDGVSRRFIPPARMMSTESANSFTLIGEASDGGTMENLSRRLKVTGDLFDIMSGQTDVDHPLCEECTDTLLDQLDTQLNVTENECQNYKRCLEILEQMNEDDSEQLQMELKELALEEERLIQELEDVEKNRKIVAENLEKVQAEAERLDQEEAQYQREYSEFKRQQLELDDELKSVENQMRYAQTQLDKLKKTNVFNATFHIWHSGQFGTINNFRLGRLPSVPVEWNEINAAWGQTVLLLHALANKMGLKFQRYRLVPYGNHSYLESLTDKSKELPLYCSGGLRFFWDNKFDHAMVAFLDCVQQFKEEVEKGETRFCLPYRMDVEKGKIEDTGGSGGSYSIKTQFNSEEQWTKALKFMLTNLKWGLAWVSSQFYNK
Chain of human VPS34 complex I (VPS34/VPS15/Beclin 1/ATG14L) (Q6ZNE5 whole entry): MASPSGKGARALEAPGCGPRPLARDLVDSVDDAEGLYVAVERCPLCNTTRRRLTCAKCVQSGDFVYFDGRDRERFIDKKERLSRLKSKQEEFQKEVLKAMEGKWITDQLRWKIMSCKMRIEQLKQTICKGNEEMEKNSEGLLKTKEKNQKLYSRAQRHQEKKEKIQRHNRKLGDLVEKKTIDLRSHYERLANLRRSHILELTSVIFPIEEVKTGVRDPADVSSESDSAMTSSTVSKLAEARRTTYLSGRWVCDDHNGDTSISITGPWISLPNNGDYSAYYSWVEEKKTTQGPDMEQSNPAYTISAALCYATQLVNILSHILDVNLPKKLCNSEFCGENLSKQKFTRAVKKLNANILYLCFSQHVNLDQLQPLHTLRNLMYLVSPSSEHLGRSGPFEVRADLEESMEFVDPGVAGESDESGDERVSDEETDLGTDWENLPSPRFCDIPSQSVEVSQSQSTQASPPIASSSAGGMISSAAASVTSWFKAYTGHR
Chain of Rab5a(1–212)-Q79L-C19S-C63S (human) (P20339 1-212 C19S/C63S/Q79L): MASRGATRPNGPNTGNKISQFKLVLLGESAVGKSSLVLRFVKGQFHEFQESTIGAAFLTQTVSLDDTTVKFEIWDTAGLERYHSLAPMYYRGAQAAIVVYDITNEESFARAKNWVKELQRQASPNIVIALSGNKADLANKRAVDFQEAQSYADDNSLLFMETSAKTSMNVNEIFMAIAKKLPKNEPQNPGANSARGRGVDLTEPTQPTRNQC

Consider “complex II REIE > AAAA (VPS34 199-REIE-202 to alanine/VPS15/Beclin 1/UVRAG) (from UniProt Q8NEB9 1-887; Q99570 1-1358; Q14457 1-450; Q9P2Y5 1-699)”, for which the GUV-based lipid kinase activity, activation of complex II REIE > AAAA by Rab5a–GTP against wild-type complex II in assay [1] turned out to be 4 fold.

In assay [2], “human VPS34 complex I (VPS34/VPS15/Beclin 1/ATG14L) (from UniProt Q8NEB9 1-887; Q99570 1-1358; Q14457 1-450; Q6ZNE5 1-492)” registered a GUV-based lipid kinase activity of complex I, fold activation by Rab1a–GDP on the GUVs of 3 fold and a GUV-based lipid kinase activity of complex I, fold activation by Rab1a–GTP on the GUVs of 11 fold.
